Blank lines part the entries; values can stand above or below the binder they belong to. Non-standard residues stand in square brackets, D forms with d. No end group written: not given here. pS = N[C@@H](COP(=O)(O)O)C(=O)O
B3: 14-3-3σ (natural protein)
chain: MERASLIQKAKLAEQAERYEDMAAFMKGAVEKGEELSCEERNLLSVAYKNVVGGQRAAWRVLSSIEQKSNEEGSEEKGPEVREYREKVETELQGVCDTVLGLLDSHLIKEAGDAESRVFYLKMKGDYYRYLAEVATGDDKKRIIDSARSAYQEAMDISKKEMPPTNPIRLGLALNFSVFHYEIANSPEEAISLAKTTFDEAMADLHTLSEDSYKDSTLIMQLLRDNLTLWTADNAGEEGGEAPQEPQS

Legend:
[1] = target: T1, 14-3-3σ covalently bound to molecular glue 23 (UniProt P31947 1-248, C38 covalently bound to compound 23 (chloroacetamide warhead)); test: SPR; 14-3-3σ covalently bound to molecular glue 23
T1 chain: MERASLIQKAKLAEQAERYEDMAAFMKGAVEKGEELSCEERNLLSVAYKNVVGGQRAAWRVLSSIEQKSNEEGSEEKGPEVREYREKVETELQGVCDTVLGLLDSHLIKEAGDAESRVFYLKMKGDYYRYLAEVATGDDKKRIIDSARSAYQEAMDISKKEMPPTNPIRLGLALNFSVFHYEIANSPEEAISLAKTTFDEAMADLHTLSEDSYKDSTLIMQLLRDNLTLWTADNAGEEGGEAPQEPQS

[2] = target: T2, 14-3-3σ, tagged with a Twin-Strep tag (UniProt P31947 1-248); test: SPR
T2 chain: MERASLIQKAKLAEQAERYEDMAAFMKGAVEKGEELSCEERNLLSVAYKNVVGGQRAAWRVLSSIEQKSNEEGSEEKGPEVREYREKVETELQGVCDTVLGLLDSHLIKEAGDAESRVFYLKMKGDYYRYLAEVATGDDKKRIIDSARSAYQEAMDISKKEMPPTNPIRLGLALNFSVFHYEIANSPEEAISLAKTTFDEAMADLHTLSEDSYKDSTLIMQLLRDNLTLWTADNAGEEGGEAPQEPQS

B-RAF 365 (10mer) [3] = target: T3, B-RAF 365 (10mer) (Homo sapiens, not fully specified); test: FP; 100 uM compound 37
T3 chain: DRSS[pS]APNVH

B-RAF 365 (10mer) [4] = target: T3, B-RAF 365 (10mer); test: FP; 100 uM compound 86
B-RAF 365 (10mer) [5] = target: T3, B-RAF 365 (10mer); test: FP; 100 uM compound 23
B-RAF 365 (10mer) [6] = target: T3, B-RAF 365 (10mer); test: FP; 100 uM compound 29
B-RAF 365 (10mer) [7] = target: T3, B-RAF 365 (10mer); test: FP; DMSO
B-RAF 365 (10mer) [8] = target: T3, B-RAF 365 (10mer); test: FP; 100 uM compound 32
14-3-3σ [9] = target: B3; test: FP; 100 uM compound 32
14-3-3σ [10] = target: B3; test: FP; 100 uM compound 70
14-3-3σ [11] = target: B3; test: FP; 100 uM compound 22
14-3-3σ [12] = target: B3; test: FP; 100 uM compound 78
14-3-3σ [13] = target: B3; test: FP; 100 uM compound 86
14-3-3σ [14] = target: B3; test: FP; 100 uM compound 29
14-3-3σ [15] = target: B3; test: FP; 100 uM compound 80
14-3-3σ [16] = target: B3; test: FP; 100 uM compound 83
14-3-3σ [17] = target: B3; test: FP; 100 uM compound 79
14-3-3σ [18] = target: B3; test: FP; 100 uM compound 37
14-3-3σ [19] = target: B3; test: FP; 100 uM compound 23
14-3-3σ [20] = target: B3; test: FP; DMSO (reference for compound 8)
14-3-3σ [21] = target: B3; test: FP; DMSO (reference for compounds 12, 18, 21, 36, 39, 40)
14-3-3σ [22] = target: B3; test: FP; 100 uM compound 18
14-3-3σ [23] = target: B3; test: FP; DMSO (reference for compound 80)
14-3-3σ [24] = target: B3; test: FP; 100 uM compound 36
14-3-3σ [25] = target: B3; test: FP; DMSO (reference for compounds 19, 33)
14-3-3σ [26] = target: B3; test: FP; 100 uM compound 32
14-3-3σ [27] = target: B3; test: FP; DMSO (reference for compound 11)
14-3-3σ [28] = target: B3; test: FP; 100 uM compound 30
14-3-3σ [29] = target: B3; test: FP; 100 uM compound 39
14-3-3σ [30] = target: B3; test: FP; DMSO (reference for compound 70)
14-3-3σ [31] = target: B3; test: FP; 100 uM compound 8
14-3-3σ [32] = target: B3; test: FP; 100 uM compound 38
14-3-3σ [33] = target: B3; test: FP; 100 uM compound 24
14-3-3σ [34] = target: B3; test: FP; 100 uM compound 21
14-3-3σ [35] = target: B3; test: FP; 100 uM compound 12
14-3-3σ [36] = target: B3; test: FP; 100 uM compound 31
14-3-3σ [37] = target: B3; test: FP; 100 uM compound 19
14-3-3σ [38] = target: B3; test: FP; 100 uM compound 40
14-3-3σ [39] = target: B3; test: FP; 100 uM compound 11
14-3-3σ [40] = target: B3; test: FP; DMSO (reference for compounds 24, 30, 31)
14-3-3σ [41] = target: B3; test: FP; 100 uM compound 46
14-3-3σ [42] = target: B3; test: FP; 100 uM compound 33
14-3-3σ [43] = target: B3; test: FP; DMSO

B2: acetylated 12-mer A-RAF peptide (peptide)
chain: IRSTSTPNVHMV
modifications: not fully specified (residue 5, N-terminus); also: phosphoserine at 214, position in chain not mapped
Kd [2]: 2000 nM
Kd [1]: 1.7 nM

Binder: B3
Kd (B-RAF 365 (10mer) [3]): 52 nM
Kd (B-RAF 365 (10mer) [4]): 155 nM
Kd (B-RAF 365 (10mer) [5]): 105 nM
Kd (B-RAF 365 (10mer) [6]): 140 nM
Kd (B-RAF 365 (10mer) [7]): 650 nM
Kd (B-RAF 365 (10mer) [8]): 112 nM

B4: acetylated 12-mer B-RAF peptide (peptide)
chain: DRSSSAPNVHIN
modifications: not fully specified (residue 5, N-terminus); also: phosphoserine at 365, position in chain not mapped
Kd [1]: 6.3 nM

B5: 15-mer A-RAF peptide (peptide)
chain: LQRIRSTSTPNVHMV
modifications: also: phosphoserine at S214, site in chain not given here
Kd (14-3-3σ [9]): 50 nM
Kd (14-3-3σ [10]): 110 nM
Kd (14-3-3σ [11]): 9 nM
Kd (14-3-3σ [12]): 120 nM
Kd (14-3-3σ [13]): 140 nM
Kd (14-3-3σ [14]): 30 nM
Kd (14-3-3σ [15]): 1100 nM
Kd (14-3-3σ [16]): 265 nM
Kd (14-3-3σ [17]): 115 nM
Kd (14-3-3σ [18]): 25 nM
Kd (14-3-3σ [19]): 5 nM

B7: FAM-labeled C-RAF259 peptide (10-mer) (peptide)
chain: QRSTSTPNVH
modifications: also: phosphoserine at S259, site in chain not given here, FAM label, site not given here
Kd (14-3-3σ [20]): 6700 nM
Kd (14-3-3σ [21]): 4200 nM
Kd (14-3-3σ [22]): 280 nM
Kd (14-3-3σ [23]): 4600 nM
Kd (14-3-3σ [24]): 240 nM
Kd (14-3-3σ [25]): 3050 nM
Kd (14-3-3σ [26]): 140 nM
Kd (14-3-3σ [27]): 1320 nM
Kd (14-3-3σ [28]): 780 nM
Kd (14-3-3σ [29]): 420 nM
Kd (14-3-3σ [15]): 420 nM
Kd (14-3-3σ [30]): 5510 nM
Kd (14-3-3σ [16]): 102 nM
Kd (14-3-3σ [31]): 6600 nM
Kd (14-3-3σ [32]): 218 nM
Kd (14-3-3σ [33]): 110 nM
Kd (14-3-3σ [34]): 480 nM
Kd (14-3-3σ [35]): 190 nM
Kd (14-3-3σ [36]): 1420 nM
Kd (14-3-3σ [37]): 213 nM
Kd (14-3-3σ [38]): 320 nM
Kd (14-3-3σ [39]): 400 nM
Kd (14-3-3σ [40]): 2280 nM
Kd (14-3-3σ [41]): 170 nM
Kd (14-3-3σ [42]): 230 nM

Second part, the binder after the results:

Kd [1]: 1.2 nM
B1: acetylated 12-mer C-RAF peptide (peptide)
chain: QRSTSTPNVHMV
modifications: not fully specified (residue 5, N-terminus); also: phosphoserine at 259, position in chain not mapped

Kd (14-3-3σ [10]): 100 nM
Kd (14-3-3σ [13]): 140 nM
Kd (14-3-3σ [15]): 332 nM
Kd (14-3-3σ [16]): 145 nM
Kd (14-3-3σ [17]): 135 nM
Kd (14-3-3σ [18]): 136 nM
B6: 15-mer C-RAF peptide (peptide)
peptide: SQRQRSTSTPNVHMV
modifications: also: phosphoserine at S259, site in chain not given here

Kd (14-3-3σ [9]): 245 nM
Kd (14-3-3σ [10]): 70 nM
Kd (14-3-3σ [12]): 55 nM
Kd (14-3-3σ [13]): 95 nM
Kd (14-3-3σ [14]): 14 nM
Kd (14-3-3σ [15]): 220 nM
Kd (14-3-3σ [16]): 94 nM
Kd (14-3-3σ [17]): 60 nM
Kd (14-3-3σ [43]): 2240 nM
Kd (14-3-3σ [18]): 25 nM
B8: 15-mer B-RAF peptide (peptide)
chain: GQRDRSSSAPNVHIN
modifications: also: phosphoserine at S365, site in chain not given here

Reference: paper PMC12903857 (2026)
